Measured values taken from the supplement of paper PMC9732359.
± gives the uncertainty stated by the source.

Assay: protein stability index of a GFP-peptide fusion (yeast GPS) (PSI 1-4); higher = more stable; sorted into four equal gates, so the index is relative within each strain
How it was run: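 Sequencing reads from sorted gates were used to score each peptide. The library consisted of tiled 17-residue yeast protein peptides fused downstream of GFP on a Cherry-expressing plasmid, pooled and carried in yeast. Mid-log cultures in leucine-free medium were split into four equal gates by GFP/Cherry ratio, and each gate's plasmids were PCR-amplified and Illumina-sequenced. The protein stability index adds up, over all gates, the read frequency multiplied by the gate number.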

GKKSSSSTKDYLTPPHE [RET1]
protein stability index (doa10∆): 3.72 ± 0.27
protein stability index (san1∆): 3.52 ± 0.22
protein stability index (ubr1∆): 2.85 ± 0.18

GKLWKDVKARIAAGDGD [QCR9]
protein stability index (doa10∆): 2.3 ± 0.11
protein stability index (pdr5∆): 2.58 ± 0.16
protein stability index (san1∆): 2.17 ± 0.07
protein stability index (ubr1∆): 2.37 ± 0.098

GKMNNEVSTSTSMTGDA [SWI3]
protein stability index (doa10∆): 3.49 ± 0.076
protein stability index (pdr5∆): 3.3 ± 0.069
protein stability index (san1∆): 3.2 ± 0.054
protein stability index (ubr1∆): 3.15 ± 0.053

GKQAIGAIAYNQFKRID [RET1]
protein stability index (doa10∆): 2.27 ± 0.2
protein stability index (ubr1∆): 2.28 ± 0.14

GKSEKLSLLLVEDKIPL [SKI6]
protein stability index (doa10∆): 2.45 ± 0.11
protein stability index (pdr5∆): 2.79 ± 0.095
protein stability index (san1∆): 3.23 ± 0.056
protein stability index (ubr1∆): 3.27 ± 0.12

GLALQLFKKLKEENDEG [RPN2]
protein stability index (doa10∆): 3.27 ± 0.12
protein stability index (pdr5∆): 3.28 ± 0.12
protein stability index (san1∆): 2.96 ± 0.1
protein stability index (ubr1∆): 3.41 ± 0.096

GLAPDARVLSNYLRQQC [PRE5]
protein stability index (doa10∆): 2.72 ± 0.19
protein stability index (pdr5∆): 2.11 ± 0.21
protein stability index (ubr1∆): 1.47 ± 0.28

GLARKFHNMLQTLYTGD [SSN3]
protein stability index (doa10∆): 2.91 ± 0.24
protein stability index (pdr5∆): 3.25 ± 0.1
protein stability index (san1∆): 3.01 ± 0.077
protein stability index (ubr1∆): 2.79 ± 0.16

GLEVGPVVQVGIFIKIL [IRR1]
protein stability index (doa10∆): 2.38 ± 0.068
protein stability index (pdr5∆): 2.25 ± 0.056
protein stability index (san1∆): 2.11 ± 0.15
protein stability index (ubr1∆): 2.47 ± 0.059

GLGVNRRILAAAAAAAA [SSN3]
protein stability index (doa10∆): 1.44 ± 0.07
protein stability index (pdr5∆): 1.52 ± 0.083
protein stability index (san1∆): 1.08 ± 0.2
protein stability index (ubr1∆): 1.95 ± 0.069

GLRAVRKNRYVILQSDL [RPT3]
protein stability index (doa10∆): 3.05 ± 0.081
protein stability index (pdr5∆): 3.06 ± 0.1
protein stability index (san1∆): 3.05 ± 0.08
protein stability index (ubr1∆): 3.31 ± 0.14

GLSIHPTQITQYTQRLS [SRP68]
protein stability index (doa10∆): 2.09 ± 0.063
protein stability index (pdr5∆): 1.93 ± 0.066
protein stability index (san1∆): 1.92 ± 0.071
protein stability index (ubr1∆): 2.13 ± 0.071

GMIYNKLFVSKEHAPYT [FAS2]
protein stability index (doa10∆): 3.12 ± 0.091
protein stability index (pdr5∆): 2.2 ± 0.092
protein stability index (san1∆): 2.24 ± 0.17
protein stability index (ubr1∆): 2.41 ± 0.1

GNDFKFNYQGDELVLNF [REC8]
protein stability index (doa10∆): 3.34 ± 0.078
protein stability index (pdr5∆): 3.42 ± 0.083
protein stability index (san1∆): 3.34 ± 0.053
protein stability index (ubr1∆): 3.17 ± 0.047

GNLSKREIQIDAVLKIF [SRB8]
protein stability index (doa10∆): 2.75 ± 0.065
protein stability index (pdr5∆): 2.83 ± 0.063
protein stability index (san1∆): 2.99 ± 0.063
protein stability index (ubr1∆): 2.68 ± 0.049

GNPYIELNQDRLGGDDL [SNF5]
protein stability index (doa10∆): 3.05 ± 0.092
protein stability index (pdr5∆): 3.24 ± 0.098
protein stability index (san1∆): 3.03 ± 0.11
protein stability index (ubr1∆): 3.27 ± 0.049

GNSERPSAVAGFINQKN [YIL149C/MLP2]
protein stability index (doa10∆): 3.31 ± 0.1
protein stability index (pdr5∆): 3.29 ± 0.12
protein stability index (san1∆): 2.93 ± 0.097
protein stability index (ubr1∆): 3.03 ± 0.051

GNSKDDLLDMIQFGAKN [ISW2]
protein stability index (doa10∆): 3.14 ± 0.2
protein stability index (pdr5∆): 2.89 ± 0.16
protein stability index (san1∆): 2.95 ± 0.11
protein stability index (ubr1∆): 2.92 ± 0.093

GNTVVDGEGKVDSISLH [YCG1]
protein stability index (doa10∆): 3.54 ± 0.3
protein stability index (pdr5∆): 3.53 ± 0.23

GNVLINDTLPDEISPEL [SNU114]
protein stability index (doa10∆): 2.99 ± 0.089
protein stability index (pdr5∆): 2.77 ± 0.097
protein stability index (san1∆): 3.32 ± 0.081
protein stability index (ubr1∆): 2.71 ± 0.17

GPAAAKPMAFSNTTTHV [MTR3]
protein stability index (doa10∆): 3.06 ± 0.08
protein stability index (pdr5∆): 3.28 ± 0.052
protein stability index (san1∆): 3.39 ± 0.05
protein stability index (ubr1∆): 3.27 ± 0.036

GPHKGKAPRILSTGRKF [RPL18A]
protein stability index (doa10∆): 2.81 ± 0.26
protein stability index (san1∆): 3.21 ± 0.16
protein stability index (ubr1∆): 2.92 ± 0.13

GPSATDPETTATQKESL [RGR1]
protein stability index (doa10∆): 2.43 ± 0.062
protein stability index (pdr5∆): 2.87 ± 0.071
protein stability index (san1∆): 1.66 ± 0.11
protein stability index (ubr1∆): 2.21 ± 0.048

GQAIVVHPDYLYGAITE [FAS2]
protein stability index (doa10∆): 2.09 ± 0.034
protein stability index (pdr5∆): 1.88 ± 0.047
protein stability index (san1∆): 1.9 ± 0.048
protein stability index (ubr1∆): 1.79 ± 0.04

GQLLKDHLIIEPEEEKS [ARP9]
protein stability index (doa10∆): 2.15 ± 0.084
protein stability index (pdr5∆): 1.77 ± 0.066
protein stability index (san1∆): 1.6 ± 0.096
protein stability index (ubr1∆): 1.71 ± 0.038

GQLPQLPKLNLPKYQTI [SNF5]
protein stability index (doa10∆): 2.78 ± 0.062
protein stability index (pdr5∆): 2.67 ± 0.055
protein stability index (san1∆): 2.57 ± 0.074
protein stability index (ubr1∆): 2.71 ± 0.047
